In the supplement of paper PMC10567573:

B1: FUNDC2 (parent)
chain: YIKVDWQRVEKDMKKAKEQLKIRK
B2: NEK8 (parent)
chain: VTIKHVACGDFFTACLTDRGIIMT

Variants of: B1
Experiment: protein stability index of a GFP-peptide fusion (GPS, HEK-293T) (PSI 1-6); higher = more stable
Conditions: c terminus: a fixed tail appended
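Further: lentivirally expressed fusions sorted by FACS into six bins by GFP to DsRed ratio, PSI derived from sequencing read proportions per bin multiplied by bin number.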

Q: For Q19P, which protein stability index is on record?
A: 1.82

Q: For Q19R, which protein stability index is on record?
A: 1.33

Q: For Q19S, which protein stability index is on record?
A: 2.04

Q: With Q19T as the variant, how does the protein stability index read?
A: 2.8

Q: With Q19V as the variant, how does the protein stability index read?
A: 1.19

Q: Which protein stability index does the source give for Q19W here?
A: 1.79

Q: Which protein stability index does the source give for Q19Y here?
A: 1.8

Q: For L20A, which protein stability index is on record?
A: 2.3

Q: With L20C as the variant, how does the protein stability index read?
A: 2

Q: With L20D as the variant, how does the protein stability index read?
A: 1.77

Q: With L20E as the variant, how does the protein stability index read?
A: 2.4

Q: For L20F, which protein stability index is on record?
A: 4.29

Q: For L20G, which protein stability index is on record?
A: 1.89

Q: Which protein stability index does the source give for L20H here?
A: 1.71

Q: For L20I, which protein stability index is on record?
A: 2.42

Q: With L20K as the variant, how does the protein stability index read?
A: 1.59

Q: With L20M as the variant, how does the protein stability index read?
A: 1.32

Q: With L20N as the variant, how does the protein stability index read?
A: 1.49

Q: For L20P, which protein stability index is on record?
A: 1.95

Q: For L20Q, which protein stability index is on record?
A: 1.42

Q: With L20R as the variant, how does the protein stability index read?
A: 1.6

Q: With L20S as the variant, how does the protein stability index read?
A: 1.52

Q: For L20T, which protein stability index is on record?
A: 2.62

Q: For L20V, which protein stability index is on record?
A: 1.77

Q: For L20W, which protein stability index is on record?
A: 2.65

Q: Which protein stability index does the source give for L20Y here?
A: 1.91

Q: For K21A, which protein stability index is on record?
A: 1.87

Q: For K21C, which protein stability index is on record?
A: 2.06

Q: Which protein stability index does the source give for K21D here?
A: 1.86

Q: With K21E as the variant, how does the protein stability index read?
A: 2.28

Q: With K21F as the variant, how does the protein stability index read?
A: 1.69

Q: With K21G as the variant, how does the protein stability index read?
A: 2.13

Q: For K21H, which protein stability index is on record?
A: 1.74

Q: For K21I, which protein stability index is on record?
A: 1.68

Q: With K21L as the variant, how does the protein stability index read?
A: 1.71

Q: For K21M, which protein stability index is on record?
A: 1.96

Q: With K21N as the variant, how does the protein stability index read?
A: 1.91

Q: For K21P, which protein stability index is on record?
A: 1.84

Q: Which protein stability index does the source give for K21Q here?
A: 1.62

Q: With K21R as the variant, how does the protein stability index read?
A: 2

Q: Which protein stability index does the source give for K21S here?
A: 2.22

Q: For K21T, which protein stability index is on record?
A: 1.87

Q: For K21V, which protein stability index is on record?
A: 2.19

Q: Which protein stability index does the source give for K21W here?
A: 2.06

Q: For K21Y, which protein stability index is on record?
A: 2.5

Q: Which protein stability index does the source give for I22A here?
A: 1.21

Q: For I22C, which protein stability index is on record?
A: 1.47

Q: Which protein stability index does the source give for I22D here?
A: 1.92

Q: Which protein stability index does the source give for I22E here?
A: 2.65

Q: For I22F, which protein stability index is on record?
A: 2.12

Q: For I22G, which protein stability index is on record?
A: 1.83

Q: With I22H as the variant, how does the protein stability index read?
A: 1.88

Q: With I22K as the variant, how does the protein stability index read?
A: 2.25

Q: With I22L as the variant, how does the protein stability index read?
A: 2.12

Q: For I22M, which protein stability index is on record?
A: 1.97

Q: For I22N, which protein stability index is on record?
A: 1.98

Q: With I22P as the variant, how does the protein stability index read?
A: 1.49

Q: With I22Q as the variant, how does the protein stability index read?
A: 2.51

Q: For I22R, which protein stability index is on record?
A: 1.29

Q: With I22S as the variant, how does the protein stability index read?
A: 2.01

Q: For I22T, which protein stability index is on record?
A: 1.57

Q: With I22W as the variant, how does the protein stability index read?
A: 2.11

Q: For I22Y, which protein stability index is on record?
A: 1.88

Q: For R23A, which protein stability index is on record?
A: 2.08

Q: Which protein stability index does the source give for R23C here?
A: 1.57

Q: Which protein stability index does the source give for R23D here?
A: 2.06

Q: With R23E as the variant, how does the protein stability index read?
A: 1.76

Q: For R23F, which protein stability index is on record?
A: 1.57

Q: With R23G as the variant, how does the protein stability index read?
A: 1.69

Q: Which protein stability index does the source give for R23H here?
A: 1.9

Q: Which protein stability index does the source give for R23I here?
A: 2.79

Q: Which protein stability index does the source give for R23K here?
A: 2.6

Q: With R23L as the variant, how does the protein stability index read?
A: 1.6

Q: For R23M, which protein stability index is on record?
A: 1.97

Q: For R23N, which protein stability index is on record?
A: 3.5

Q: Which protein stability index does the source give for R23P here?
A: 1.63

Q: Which protein stability index does the source give for R23Q here?
A: 2.07

Q: With R23S as the variant, how does the protein stability index read?
A: 2.02

Q: For R23T, which protein stability index is on record?
A: 2.19

Q: With R23V as the variant, how does the protein stability index read?
A: 2.26

Q: With R23W as the variant, how does the protein stability index read?
A: 1.59

Q: For R23Y, which protein stability index is on record?
A: 1.67

Q: With K24A as the variant, how does the protein stability index read?
A: 2.81

Q: Which protein stability index does the source give for K24C here?
A: 2.47

Q: Which protein stability index does the source give for K24D here?
A: 2.02

Q: Which protein stability index does the source give for K24E here?
A: 2.03

Q: With K24F as the variant, how does the protein stability index read?
A: 1.52

Q: Which protein stability index does the source give for K24G here?
A: 1.85

Q: With K24H as the variant, how does the protein stability index read?
A: 2.12

Q: For K24L, which protein stability index is on record?
A: 2.16

Q: With K24M as the variant, how does the protein stability index read?
A: 1.31

Q: For K24N, which protein stability index is on record?
A: 2.07

Q: With K24P as the variant, how does the protein stability index read?
A: 1.6

Q: Which protein stability index does the source give for K24Q here?
A: 1.31

Q: With K24R as the variant, how does the protein stability index read?
A: 1.12

Q: Which protein stability index does the source give for K24S here?
A: 1.67

Q: Which protein stability index does the source give for K24T here?
A: 1.76

Q: For K24V, which protein stability index is on record?
A: 2.61

Q: With K24W as the variant, how does the protein stability index read?
A: 1.69

Q: Which protein stability index does the source give for K24Y here?
A: 1.38

Variants of: B2
Experiment: as above
Conditions: c terminus: a fixed tail appended

Q: For V1A, which protein stability index is on record?
A: 2.57

Q: Which protein stability index does the source give for V1C here?
A: 2.23

Q: Which protein stability index does the source give for V1E here?
A: 1.45

Q: Which protein stability index does the source give for V1F here?
A: 1.99

Q: For V1G, which protein stability index is on record?
A: 3.39

Q: For V1H, which protein stability index is on record?
A: 2.87

Q: For V1I, which protein stability index is on record?
A: 2.71

Q: Which protein stability index does the source give for V1K here?
A: 1.91

Q: For V1M, which protein stability index is on record?
A: 3.97

Q: Which protein stability index does the source give for V1N here?
A: 2.51

Q: With V1P as the variant, how does the protein stability index read?
A: 1.33

Q: Which protein stability index does the source give for V1Q here?
A: 1.59

Q: With V1R as the variant, how does the protein stability index read?
A: 2.44

Q: With V1S as the variant, how does the protein stability index read?
A: 3.58

Q: Which protein stability index does the source give for V1T here?
A: 1.54

Q: Which protein stability index does the source give for V1W here?
A: 4.31

Q: With V1Y as the variant, how does the protein stability index read?
A: 3.81

Q: Which protein stability index does the source give for T2C here?
A: 2

Q: For T2D, which protein stability index is on record?
A: 2.1

Q: Which protein stability index does the source give for T2E here?
A: 2.31

Q: For T2F, which protein stability index is on record?
A: 3.64

Q: With T2G as the variant, how does the protein stability index read?
A: 3.03

Q: For T2I, which protein stability index is on record?
A: 2.48

Q: Which protein stability index does the source give for T2K here?
A: 2.06

Q: For T2M, which protein stability index is on record?
A: 3.25

Q: For T2P, which protein stability index is on record?
A: 3.12

Q: For T2R, which protein stability index is on record?
A: 2.24

Q: With T2S as the variant, how does the protein stability index read?
A: 2.88

Q: Which protein stability index does the source give for T2W here?
A: 2.38

Q: Which protein stability index does the source give for T2Y here?
A: 3.11

Q: For I3A, which protein stability index is on record?
A: 1.28

Q: For I3D, which protein stability index is on record?
A: 3.11

Q: Which protein stability index does the source give for I3E here?
A: 2.6

Q: With I3F as the variant, how does the protein stability index read?
A: 3.2

Q: For I3G, which protein stability index is on record?
A: 2.58

Q: Which protein stability index does the source give for I3H here?
A: 2.67

Q: With I3K as the variant, how does the protein stability index read?
A: 1.92

Q: For I3L, which protein stability index is on record?
A: 2.32

Q: With I3N as the variant, how does the protein stability index read?
A: 2.55

Q: For I3P, which protein stability index is on record?
A: 2.31

Q: For I3Q, which protein stability index is on record?
A: 2.49

Q: With I3R as the variant, how does the protein stability index read?
A: 2.22

Q: For I3S, which protein stability index is on record?
A: 2.69

Q: With I3T as the variant, how does the protein stability index read?
A: 3.18

Q: For I3V, which protein stability index is on record?
A: 2.27

Q: Which protein stability index does the source give for I3Y here?
A: 2.57

Q: With K4A as the variant, how does the protein stability index read?
A: 4.56

Q: With K4C as the variant, how does the protein stability index read?
A: 3.59

Q: Which protein stability index does the source give for K4D here?
A: 2.87

Q: For K4E, which protein stability index is on record?
A: 1.58

Q: For K4F, which protein stability index is on record?
A: 2.88

Q: For K4G, which protein stability index is on record?
A: 3.43

Q: With K4H as the variant, how does the protein stability index read?
A: 2.81

Q: For K4I, which protein stability index is on record?
A: 2.27

Q: With K4L as the variant, how does the protein stability index read?
A: 3.2

Q: With K4M as the variant, how does the protein stability index read?
A: 1.33

Q: For K4N, which protein stability index is on record?
A: 2.03

Q: Which protein stability index does the source give for K4P here?
A: 2.13

Q: With K4R as the variant, how does the protein stability index read?
A: 2.47

Q: With K4S as the variant, how does the protein stability index read?
A: 2.57

Q: With K4T as the variant, how does the protein stability index read?
A: 2.17

Q: With K4V as the variant, how does the protein stability index read?
A: 1.74

Q: Which protein stability index does the source give for K4W here?
A: 3.87

Q: With K4Y as the variant, how does the protein stability index read?
A: 2.75

Q: For H5C, which protein stability index is on record?
A: 2.12

Q: Which protein stability index does the source give for H5D here?
A: 3.02

Q: With H5F as the variant, how does the protein stability index read?
A: 2.88
